Values quoted from earlier work in article PMC10287730.

Molecular target: TLR4 (Homo sapiens) (UniProt O00206)
Sequence (O00206 24-839): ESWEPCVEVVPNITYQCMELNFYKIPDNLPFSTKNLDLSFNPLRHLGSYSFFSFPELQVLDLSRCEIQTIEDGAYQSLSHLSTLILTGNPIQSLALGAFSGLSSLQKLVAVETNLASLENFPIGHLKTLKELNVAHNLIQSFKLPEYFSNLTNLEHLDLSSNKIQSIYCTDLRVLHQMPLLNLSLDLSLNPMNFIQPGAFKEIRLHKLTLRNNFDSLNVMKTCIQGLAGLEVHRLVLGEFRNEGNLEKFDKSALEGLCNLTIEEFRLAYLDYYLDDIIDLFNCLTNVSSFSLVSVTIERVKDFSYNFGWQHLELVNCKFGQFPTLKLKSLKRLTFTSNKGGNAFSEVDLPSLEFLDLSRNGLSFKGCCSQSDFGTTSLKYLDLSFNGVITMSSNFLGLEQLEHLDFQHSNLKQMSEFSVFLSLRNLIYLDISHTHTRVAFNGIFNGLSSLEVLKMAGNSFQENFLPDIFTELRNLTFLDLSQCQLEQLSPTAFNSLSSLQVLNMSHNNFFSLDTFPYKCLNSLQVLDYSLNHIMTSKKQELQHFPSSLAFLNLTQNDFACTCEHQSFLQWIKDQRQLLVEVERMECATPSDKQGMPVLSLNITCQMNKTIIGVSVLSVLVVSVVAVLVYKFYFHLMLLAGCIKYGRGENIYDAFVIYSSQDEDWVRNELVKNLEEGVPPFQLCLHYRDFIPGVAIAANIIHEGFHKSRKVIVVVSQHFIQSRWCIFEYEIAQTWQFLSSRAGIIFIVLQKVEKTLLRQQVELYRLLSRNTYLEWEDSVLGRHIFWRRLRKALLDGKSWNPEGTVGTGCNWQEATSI

Sequence of Galectin-3 (P17931 2-250): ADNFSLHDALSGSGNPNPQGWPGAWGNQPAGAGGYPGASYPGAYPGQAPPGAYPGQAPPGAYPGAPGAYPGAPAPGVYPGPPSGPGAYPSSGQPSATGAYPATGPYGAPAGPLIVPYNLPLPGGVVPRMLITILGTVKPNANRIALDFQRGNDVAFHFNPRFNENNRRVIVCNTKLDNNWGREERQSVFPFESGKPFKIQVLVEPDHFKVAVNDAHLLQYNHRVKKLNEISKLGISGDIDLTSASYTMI

Galectin-3 (from UniProt P17931)
Kd: 1 µM
